Experimental data: IntAct's records for PubMed 29892012

B1: CD151 antigen (Homo sapiens), P48509 (parent)
chain: MGEFNEKKTTCGTVCLKYLLFTYNCCFWLAGLAVMAVGIWTLALKSDYISLLASGTYLATAYILVVAGTVVMVTGVLGCCATFKERRNLLRLYFILLLIIFLLEIIAGILAYAYYQQLNTELKENLKDTMTKRYHQPGHEAVTSAVDQLQQEFHCCGSNNSQDWRDSEWIRSQEAGGRVVPDSCCKTVVALCGQRDHASNIYKVEGGCITKLETFIQEHLRVIGAVGIGIACVQVFGMIFTCCLYRSLKLEHY
B2: Enhancer of mRNA-decapping protein 3 (Homo sapiens), Q96F86 (parent)
chain: MATDWLGSIVSINCGDSLGVYQGRVSAVDQVSQTISLTRPFHNGVKCLVPEVTFRAGDITELKILEIPGPGDNQHFGDLHQTELGPSGAGCQVGINQNGTGKFVKKPASSSSAPQNIPKRTDVKSQDVAVSPQQQQCSKSYVDRHMESLSQSKSFRRRHNSWSSSSRHPNQATPKKSGLKNGQMKNKDDECFGDDIEEIPDTDFDFEGNLALFDKAAVFEEIDTYERRSGTRSRGIPNERPTRYRHDENILESEPIVYRRIIVPHNVSKEFCTDSGLVVPSISYELHKKLLSVAEKHGLTLERRLEMTGVCASQMALTLLGGPNRLNPKNVHQRPTVALLCGPHVKGAQGISCGRHLANHDVQVILFLPNFVKMLESITNELSLFSKTQGQQVSSLKDLPTSPVDLVINCLDCPENVFLRDQPWYKAAVAWANQNRAPVLSIDPPVHEVEQGIDAKWSLALGLPLPLGEHAGRIYLCDIGIPQQVFQEVGINYHSPFGCKFVIPLHSA
B3: Structure-specific endonuclease subunit SLX4 (Homo sapiens), Q8IY92 (parent)
chain: MKLSVNEAQLGFYLGSLSHLSACPGIDPRSSEDQPESLKTGQMMDESDEDFKELCASFFQRVKKHGIKEVSGERKTQKAASNGTQIRSKLKRTKQTATKTKTLQGPAEKKPPSGSQAPRTKKQRVTKWQASEPAHSVNGEGGVLASAPDPPVLRETAQNTQTGNQQEPSPNLSREKTRENVPNSDSQPPPSCLTTAVPSPSKPRTAQLVLQRMQQFKRADPERLRHASEECSLEAAREENVPKDPQEEMMAGNVYGLGPPAPESDAAVALTLQQEFARVGASAHDDSLEEKGLFFCQICQKNLSAMNVTRREQHVNRCLDEAEKTLRPSVPQIPECPICGKPFLTLKSRTSHLKQCAVKMEVGPQLLLQAVRLQTAQPEGSSSPPMFSFSDHSRGLKRRGPTSKKEPRKRRKVDEAPSEDLLVAMALSRSEMEPGAAVPALRLESAFSERIRPEAENKSRKKKPPVSPPLLLVQDSETTGRQIEDRVALLLSEEVELSSTPPLPASRILKEGWERAGQCPPPPERKQSFLWEGSALTGAWAMEDFYTARLVPPLVPQRPAQGLMQEPVPPLVPPEHSELSERRSPALHGTPTAGCGSRGPSPSASQREHQALQDLVDLAREGLSASPWPGSGGLAGSEGTAGLDVVPGGLPLTGFVVPSQDKHPDRGGRTLLSLGLLVADFGAMVNNPHLSDVQFQTDSGEVLYAHKFVLYARCPLLIQYVNNEGFSAVEDGVLTQRVLLGDVSTEAARTFLHYLYTADTGLPPGLSSELSSLAHRFGVSELVHLCEQVPIATDSEGKPWEEKEAENCESRAENFQELLRSMWADEEEEAETLLKSKDHEEDQENVNEAEMEEIYEFAATQRKLLQEERAAGAGEDADWLEGGSPVSGQLLAGVQVQKQWDKVEEMEPLEPGRDEAATTWEKMGQCALPPPQGQHSGARGAEAPEQEAPEEALGHSSCSSPSRDCQAERKEGSLPHSDDAGDYEQLFSSTQGEISEPSQITSEPEEQSGAVRERGLEVSHRLAPWQASPPHPCRFLLGPPQGGSPRGSHHTSGSSLSTPRSRGGTSQVGSPTLLSPAVPSKQKRDRSILTLSKEPGHQKGKERRSVLECRNKGVLMFPEKSPSIDLTQSNPDHSSSRSQKSSSKLNEEDEVILLLDSDEELELEQTKMKSISSDPLEEKKALEISPRSCELFSIIDVDADQEPSQSPPRSEAVLQQEDEGALPENRGSLGRRGAPWLFCDRESSPSEASTTDTSWLVPATPLASRSRDCSSQTQISSLRSGLAVQAVTQHTPRASVGNREGNEVAQKFSVIRPQTPPPQTPSSCLTPVSPGTSDGRRQGHRSPSRPHPGGHPHSSPLAPHPISGDRAHFSRRFLKHSPPGPSFLNQTPAGEVVEVGDSDDEQEVASHQANRSPPLDSDPPIPIDDCCWHMEPLSPIPIDHWNLERTGPLSTSSPSRRMNEAADSRDCRSPGLLDTTPIRGSCTTQRKLQEKSSGAGSLGNSRPSFLNSALWDVWDGEEQRPPETPPPAQMPSAGGAQKPEGLETPKGANRKKNLPPKVPITPMPQYSIMETPVLKKELDRFGVRPLPKRQMVLKLKEIFQYTHQTLDSDSEDESQSSQPLLQAPHCQTLASQTYKPSRAGVHAQQEATTGPGAHRPKGPAKTKGPRHQRKHHESITPPSRSPTKEAPPGLNDDAQIPASQESVATSVDGSDSSLSSQSSSSCEFGAAFESAGEEEGEGEVSASQAAVQAADTDEALRCYIRSKPALYQKVLLYQPFELRELQAELRQNGLRVSSRRLLDFLDTHCITFTTAATRREKLQGRRRQPRGKKKVERN
partner: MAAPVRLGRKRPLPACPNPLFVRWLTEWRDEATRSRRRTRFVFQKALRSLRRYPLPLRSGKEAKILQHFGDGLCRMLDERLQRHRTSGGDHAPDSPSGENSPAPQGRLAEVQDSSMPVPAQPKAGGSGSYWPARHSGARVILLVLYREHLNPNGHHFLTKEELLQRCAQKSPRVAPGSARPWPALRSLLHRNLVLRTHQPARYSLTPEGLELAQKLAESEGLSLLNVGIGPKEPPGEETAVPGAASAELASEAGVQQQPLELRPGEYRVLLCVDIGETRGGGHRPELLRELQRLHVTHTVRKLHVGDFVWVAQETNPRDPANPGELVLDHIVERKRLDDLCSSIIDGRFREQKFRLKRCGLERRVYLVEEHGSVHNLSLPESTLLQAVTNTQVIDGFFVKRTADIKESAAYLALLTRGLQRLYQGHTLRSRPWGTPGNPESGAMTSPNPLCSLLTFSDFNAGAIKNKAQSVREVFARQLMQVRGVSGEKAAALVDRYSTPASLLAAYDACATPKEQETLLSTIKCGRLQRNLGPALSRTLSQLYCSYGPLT
B4: Myotubularin-related protein 9 (Homo sapiens), Q96QG7 (parent)
chain: MEFAELIKTPRVDNVVLHRPFYPAVEGTLCLTGHHLILSSRQDNTEELWLLHSNIDAIDKRFVGSLGTIIIKCKDFRIIQLDIPGMEECLNIASSIEALSTLDSITLMYPFFYRPMFEVIEDGWHSFLPEQEFELYSSATSEWRLSYVNKEFAVCPSYPPIVTVPKSIDDEALRKVATFRHGGRFPVLSYYHKKNGMVIMRSGQPLTGTNGRRCKEDEKLINATLRAGKRGYIIDTRSLNVAQQTRAKGGGFEQEAHYPQWRRIHKSIERYHILQESLIKLVEACNDQTHNMDRWLSKLEASNWLTHIKEILTTACLAAQCIDREGASILIHGTEGTDSTLQVTSLAQIILEPRSRTIRGFEALIEREWLQAGHPFQQRCAQSAYCNTKQKWEAPVFLLFLDCVWQILRQFPCSFEFNENFLIMLFEHAYASQFGTFLGNNESERCKLKLQQKTMSLWSWVNQPSELSKFTNPLFEANNLVIWPSVAPQSLPLWEGIFLRWNRSSKYLDEAYEEMVNIIEYNKELQAKVNILRRQLAELETEDGMQESP
partner: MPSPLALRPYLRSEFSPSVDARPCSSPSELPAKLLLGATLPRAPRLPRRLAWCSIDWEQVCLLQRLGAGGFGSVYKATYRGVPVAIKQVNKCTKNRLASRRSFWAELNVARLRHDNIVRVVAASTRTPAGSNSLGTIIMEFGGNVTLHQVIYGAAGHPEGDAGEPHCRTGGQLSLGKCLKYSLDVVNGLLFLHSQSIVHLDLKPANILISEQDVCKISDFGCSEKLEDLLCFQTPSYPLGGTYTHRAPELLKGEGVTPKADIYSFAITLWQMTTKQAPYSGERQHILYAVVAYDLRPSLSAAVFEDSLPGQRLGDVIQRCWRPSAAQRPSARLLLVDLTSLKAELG
B5: Keratin, type I cuticular Ha8 (Homo sapiens), O76015 (parent)
chain: MTSSYSSSSCPLGCTMAPGARNVSVSPIDIGCQPGAEANIAPMCLLANVAHANRVRVGSTPLGRPSLCLPPTCHTACPLPGTCHIPGNIGICGAYGENTLNGHEKETMQFLNDRLANYLEKVRQLEQENAELEATLLERSKCHESTVCPDYQSYFHTIEELQQKILCSKAENARLIVQIDNAKLAADDFRIKLESERSLRQLVEADKCGTQKLLDDATLAKADLEAQQESLKEEQLSLKSNHEQEVKILRSQLGEKLRIELDIEPTIDLNRVLGEMRAQYEAMLETNRQDVEQWFQAQSEGISLQDMSCSEELQCCQSEILELRCTVNALEVERQAQHTLKDCLQNSLCEAEDRFGTELAQMQSLISNVEEQLSEIRADLERQNQEYQVLLDVKTRLENEIATYRNLLESEDCKLPCNPCSTSPSCVTAPCAPRPSCGPCTTCGPTCGASTTGSRF
partner: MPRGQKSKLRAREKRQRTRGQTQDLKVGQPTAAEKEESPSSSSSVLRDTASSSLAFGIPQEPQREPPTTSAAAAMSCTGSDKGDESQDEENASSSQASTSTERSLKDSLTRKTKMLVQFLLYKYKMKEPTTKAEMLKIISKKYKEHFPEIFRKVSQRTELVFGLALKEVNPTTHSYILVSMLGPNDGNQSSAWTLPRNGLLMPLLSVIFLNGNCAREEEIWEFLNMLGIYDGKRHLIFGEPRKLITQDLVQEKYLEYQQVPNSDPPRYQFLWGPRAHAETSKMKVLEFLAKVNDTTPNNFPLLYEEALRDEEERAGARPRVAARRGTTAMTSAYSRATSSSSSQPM

Variants of: B1
Details: with astrc_human GRAMD1C

Row | Variant | effect of a mutation on the interaction
1 | S158T | with no effect

Variants of: B2
Details: with ddx6_human DDX6, P26196
Sequence of ddx6_human DDX6, P26196 (P26196 whole entry): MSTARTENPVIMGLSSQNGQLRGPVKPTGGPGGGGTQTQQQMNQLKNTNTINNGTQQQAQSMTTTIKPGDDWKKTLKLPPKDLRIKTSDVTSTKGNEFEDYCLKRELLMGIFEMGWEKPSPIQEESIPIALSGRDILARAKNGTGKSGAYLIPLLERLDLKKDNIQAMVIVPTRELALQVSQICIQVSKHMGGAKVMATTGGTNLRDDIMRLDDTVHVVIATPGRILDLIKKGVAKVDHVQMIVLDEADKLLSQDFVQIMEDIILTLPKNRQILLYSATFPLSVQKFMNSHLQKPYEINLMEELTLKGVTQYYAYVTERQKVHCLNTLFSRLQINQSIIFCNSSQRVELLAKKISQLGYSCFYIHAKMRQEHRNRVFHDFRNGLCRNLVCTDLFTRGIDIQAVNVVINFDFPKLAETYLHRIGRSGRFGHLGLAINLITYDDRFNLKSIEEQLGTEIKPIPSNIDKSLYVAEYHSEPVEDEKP

Row | Variant | effect of a mutation on the interaction
2 | F213L | disrupting interaction strength

Variants of: B3
Details: with mus81_human MUS81, Q96NY9

Row | Variant | effect of a mutation on the interaction
3 | F708L | disrupting interaction strength

Variants of: B3
Details: with mus81_human MUS81, Q96NY9
Remark: another data set of the same source

Row | Variant | effect of a mutation on the interaction
4 | V886L | with no effect

Variants of: B4
Details: with mos_human MOS

Row | Variant | effect of a mutation on the interaction
5 | R359S | with no effect

Variants of: B5
Details: with magb4_human MAGEB4, O15481

Row | Variant | effect of a mutation on the interaction
6 | N270K | with no effect
